Assay results published in PMC2739207 (BMC Structural Biology, 2009).
Blank lines part the entries; values can stand above or below the binder they belong to.

How the values were obtained:
[1] = target: T1, 40 kDa C-terminal fragment of the lysosomal 66.3 kDa protein from mouse (C249-D594) (mouse, UniProt Q3TCN2 249-594, N-glycans at N441 and N520; C249 partially oxidized, modeled as cysteine sulfonic acid (OCS)); test: crystal structure; crystals grown under acidic conditions (PEG 4000, NaAc/HAc pH 4.6, NH4Ac); crystal form I, space group C2, one molecule in the asymmetric unit; 3FGR at 1.8 Å, 3FGT at 2.4 Å; settings: both partners purified
T1 construct: lysosomal 66.3 kDa protein, mouse; C-terminal proteolytic fragment beginning at C249; ordered in 3FGR and 3FGT: C249-P592; W593, D594 and the eleven tag residues are disordered; Made by cleavage of the 66.3 kDa proprotein between S248 and C249; also called 40 kDa fragment; chain B; source: gel filtration only for the batch of 3FGR
T1 sequence (looked up): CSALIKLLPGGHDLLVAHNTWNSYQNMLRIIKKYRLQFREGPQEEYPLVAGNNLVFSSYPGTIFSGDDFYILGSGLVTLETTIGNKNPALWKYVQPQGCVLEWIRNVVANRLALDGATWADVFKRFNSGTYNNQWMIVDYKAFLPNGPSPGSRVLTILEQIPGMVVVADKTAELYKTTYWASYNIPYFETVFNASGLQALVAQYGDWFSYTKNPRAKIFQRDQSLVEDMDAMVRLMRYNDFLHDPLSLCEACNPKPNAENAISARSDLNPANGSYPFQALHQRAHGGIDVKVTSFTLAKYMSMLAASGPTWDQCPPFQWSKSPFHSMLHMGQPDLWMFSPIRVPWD

[2] = target: the molecule itself; test: SEC; gel filtration column during protein purification, after affinity and anion exchange columns; single 280 nm absorption peak; conditions as in ref. 17

binding result [1]: binds
B1: 28 kDa N-terminal fragment of the lysosomal 66.3 kDa protein from mouse (L47-S248) (domain or fragment, UniProt Q3TCN2 47-248, looked up)
chain: LPTLGPGWQRQNPDPPVSRTRSLLLDAASGQLRLEDGFHPDAVAWANLTNAIRETGWAYLDLSTNGRYNDSLQAYAAGVVEASVSEELIYMHWMNTVVNYCGPFEYEVGYCEKLKNFLEANLEWMQREMELNPDSPYWHQVRLTLLQLKGLEDSYEGRLTFPTGRFTIKPLGFLLLQISGDLEDLEPALNKTNTKPSLGSGS
modifications: N-glycans at N93, N115 and N236
notes: lysosomal 66.3 kDa protein, mouse; N-terminal proteolytic fragment after cleavage between S248 and C249; residues L47-S248 by mass spectrometry; ordered in 3FGR: V63-T238 and G245-S248; Made by cleavage of the 66.3 kDa proprotein; it never stood apart from the 40 kDa fragment; The protein batch also holds the shorter form L47-S246 and the uncleaved protein; also called 28 kDa fragment; …

binding result [1]: binds
B2: 28 kDa N-terminal fragment of the lysosomal 66.3 kDa protein from mouse, shorter form (L47-S246) (domain or fragment, UniProt Q3TCN2 47-246, looked up)
chain: LPTLGPGWQRQNPDPPVSRTRSLLLDAASGQLRLEDGFHPDAVAWANLTNAIRETGWAYLDLSTNGRYNDSLQAYAAGVVEASVSEELIYMHWMNTVVNYCGPFEYEVGYCEKLKNFLEANLEWMQREMELNPDSPYWHQVRLTLLQLKGLEDSYEGRLTFPTGRFTIKPLGFLLLQISGDLEDLEPALNKTNTKPSLGS
modifications: N-glycans at N115 and N236 seen in 3FGT
notes: lysosomal 66.3 kDa protein, mouse; 28 kDa fragment truncated at the C-terminus by two residues; residues L47-S246 by mass spectrometry; ordered in 3FGT: D60-N239; residues after N239 are disordered in the structure; also called shorter version of the 28 kDa fragment; chain A of 3FGT; source: HT1080 human fibrosarcoma cells, overexpressed, purified (original protocol lacking a gel filtration)

B3: lysosomal 66.3 kDa protein from mouse (natural protein, UniProt Q3TCN2 47-594, looked up)
chain: LPTLGPGWQRQNPDPPVSRTRSLLLDAASGQLRLEDGFHPDAVAWANLTNAIRETGWAYLDLSTNGRYNDSLQAYAAGVVEASVSEELIYMHWMNTVVNYCGPFEYEVGYCEKLKNFLEANLEWMQREMELNPDSPYWHQVRLTLLQLKGLEDSYEGRLTFPTGRFTIKPLGFLLLQISGDLEDLEPALNKTNTKPSLGSGSCSALIKLLPGGHDLLVAHNTWNSYQNMLRIIKKYRLQFREGPQEEYPLVAGNNLVFSSYPGTIFSGDDFYILGSGLVTLETTIGNKNPALWKYVQPQGCVLEWIRNVVANRLALDGATWADVFKRFNSGTYNNQWMIVDYKAFLPNGPSPGSRVLTILEQIPGMVVVADKTAELYKTTYWASYNIPYFETVFNASGLQALVAQYGDWFSYTKNPRAKIFQRDQSLVEDMDAMVRLMRYNDFLHDPLSLCEACNPKPNAENAISARSDLNPANGSYPFQALHQRAHGGIDVKVTSFTLAKYMSMLAASGPTWDQCPPFQWSKSPFHSMLHMGQPDLWMFSPIRVPWD
modifications: N-glycans at N93, N115, N236, N441 and N520; mannose 6-phosphate containing
notes: lysosomal 66.3 kDa protein, mouse; proprotein after removal of the signal peptide, L47-D594; ordered in 3FGW: P61-N239 and G245-D594; The preparation on the gel filtration column was a mixture of the uncleaved chain and the cleaved form (28 kDa plus 40 kDa fragments); the dimer is told of the 66.3 kDa protein as a whole; also called uncleaved 66.3 kDa protein; uncleaved form (3FGW)
stoichiometry N [2]: 2
